# T1: rSigP (ECF sigma factor) (Porphyromonas gingivalis ATCC 33277) (UniProt B2RHE8)
# T1 sequence: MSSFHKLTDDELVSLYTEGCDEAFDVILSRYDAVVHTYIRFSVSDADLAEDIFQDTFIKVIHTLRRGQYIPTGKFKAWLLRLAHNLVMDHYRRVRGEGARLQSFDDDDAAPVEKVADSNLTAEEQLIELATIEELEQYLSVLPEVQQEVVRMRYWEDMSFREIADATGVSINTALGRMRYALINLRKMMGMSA
# T2: recombinant PorX (rPorX) (Porphyromonas gingivalis ATCC 33277, UniProt B2RJJ3 1-518)
# T2 construct: also called PGN_1019; source: E. coli BL21(DE3), purified (Ni-NTA agarose)
# T2 sequence: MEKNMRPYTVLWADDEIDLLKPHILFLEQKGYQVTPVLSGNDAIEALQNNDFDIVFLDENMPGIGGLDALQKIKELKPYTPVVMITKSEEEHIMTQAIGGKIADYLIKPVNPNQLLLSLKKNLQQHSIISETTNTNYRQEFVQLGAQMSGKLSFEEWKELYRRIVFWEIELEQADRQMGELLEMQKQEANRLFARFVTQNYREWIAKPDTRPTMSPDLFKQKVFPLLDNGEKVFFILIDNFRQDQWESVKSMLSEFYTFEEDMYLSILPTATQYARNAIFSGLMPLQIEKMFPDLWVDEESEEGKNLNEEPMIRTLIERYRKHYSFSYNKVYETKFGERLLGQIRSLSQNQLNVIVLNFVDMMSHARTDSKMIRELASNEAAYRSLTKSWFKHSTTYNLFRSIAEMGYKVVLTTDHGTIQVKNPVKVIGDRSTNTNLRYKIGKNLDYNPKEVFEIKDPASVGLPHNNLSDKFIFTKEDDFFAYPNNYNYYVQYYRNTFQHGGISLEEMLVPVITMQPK
# T3: recombinant PorX (rPorX) (Porphyromonas gingivalis ATCC 33277, UniProt B2RJJ3 1-518)
# T3 chain: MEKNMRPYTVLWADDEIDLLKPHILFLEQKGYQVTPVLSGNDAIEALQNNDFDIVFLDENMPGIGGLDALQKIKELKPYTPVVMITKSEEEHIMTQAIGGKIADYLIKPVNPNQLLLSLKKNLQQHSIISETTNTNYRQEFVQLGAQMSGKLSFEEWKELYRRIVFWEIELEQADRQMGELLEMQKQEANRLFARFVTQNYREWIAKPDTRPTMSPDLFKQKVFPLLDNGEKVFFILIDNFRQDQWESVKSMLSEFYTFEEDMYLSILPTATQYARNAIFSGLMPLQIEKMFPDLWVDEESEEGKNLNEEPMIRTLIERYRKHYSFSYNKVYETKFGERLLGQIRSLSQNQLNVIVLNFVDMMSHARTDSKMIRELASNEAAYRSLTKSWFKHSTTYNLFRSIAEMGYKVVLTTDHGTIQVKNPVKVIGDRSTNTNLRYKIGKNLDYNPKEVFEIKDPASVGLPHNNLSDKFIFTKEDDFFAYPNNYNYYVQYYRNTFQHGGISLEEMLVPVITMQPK
# B1: recombinant SigP (rSigP) (natural protein)
# chain: MSSFHKLTDDELVSLYTEGCDEAFDVILSRYDAVVHTYIRFSVSDADLAEDIFQDTFIKVIHTLRRGQYIPTGKFKAWLLRLAHNLVMDHYRRVRGEGARLQSFDDDDAAPVEKVADSNLTAEEQLIELATIEELEQYLSVLPEVQQEVVRMRYWEDMSFREIADATGVSINTALGRMRYALINLRKMMGMSA
# notes: source: E. coli BL21(DE3), purified (Ni-NTA agarose)
# Legend:
# [1] = target: T1, rSigP (ECF sigma factor) (Porphyromonas gingivalis ATCC 33277); test: EMSA
# recombinant PorX (rPorX) [2] = target: T2, recombinant PorX (rPorX); test: SPR; conditions: both partners purified
# recombinant PorX (rPorX) [3] = target: T3, recombinant PorX (rPorX); test: SPR
Molecule,binding [1],Kd (recombinant PorX (rPorX) [2]) [nM],koff (recombinant PorX (rPorX) [3]) [s⁻¹]
ACATTATTTATATATCTGCTTCGCTGCTCTCCCCGAATCCTGCGCTAAGGCAGTTTTCAGAGGAAACGAATGCTTTTATACTTTGCATCTCTATTCTTCGTATTGCTCAATGGGAAAGAA (double strand) [porK 5'-adjacent region probe],no binding,–,–
ATAATTATTGTTGTGAGGTAGGTTATGCAAATCTACGAACGAGATGTTCTAAATACCGATTCGCGCAAAAATACAATATCTTTGCTGCATAAGGCGTTGA (double strand) [porT promoter probe],binds,–,–
ATTTCGTTCGTTTTGTTTTGTATTCTTATCGGGGTCTATGAATATTCAATATCGTAAACGGCAGAACTGCTTCGGCTATTGTGCTACCACGATCATTTTCTTGGCCATGGAGGCCGTCTG (double strand) [porV promoter probe],binds,–,–
GCAAAGAGGATTTTTTCTTCAACGAAGAAGAGTACTGATAATGTAATCTCCTTAAGCGAATATGCCCCGGATGTGCAATAATAGCACTCGGGGCTTCGTTTTACCACCGTGGCATCAGTC (double strand) [porP promoter probe],binds,–,–
GGCTATACGCAAAGCAGTCAAGTCCATTCTCTCCGAGGATTCGTCCTTAGCTGTCGAAGATATTATCAAGCGAGCATTACGAATGTTATAACCTTTTCTC (double strand) [sov 5'-adjacent region probe],no binding,–,–
TTAGTGACTGAAATGCGATTGCCCTGTTACAAACGGACTTGATACAACATTTTCCCTACTTTTGCGTTAGTTTCCTATAGTAATAAACAACACTATGGTG (double strand) [ruvA promoter probe],binds,–,–
B1,–,78.3,0.000529

# Reference: article PMC4800418, “A two-component system regulates gene expression of the type IX secretion component proteins via an ECF sigma factor” (Scientific Reports, 2016)
